This is an account of results in the DeepSol protein solubility set.

This data set is described as follows: soluble on expression in E. coli; label from the status in PepcDB or PDB records.
On to “MGSDKIHHHHHHMAHEMIGTQIVTERLVALLESGTEKVLLIDSRPFVEYNTSHILEAININCSKLMKRRLQQDKVLITELIQHSAKHKVDIDCSQKVVVYDQSSQDVASLSSDCFLTVLLGKLEKSFNSVHLLAGGFAEFSRCFPGLCEGKSTLVPTCISQPCLPVANIGPTRILPNLYLGCQRDVLNKELMQQNGIGYVLNASNTCPKPDFIPESHFLRVPVNDSFCEKILPWLDKSVDFIEKAKASNGCVLVHCLAGISRSATIAIAYIMKRMDMSLDEAYRFVKEKRPTISPNFNFLGQLLDYEKKIKNQTGASGPKSKLKLLHLEKPNEPVPAVSEGGQKSETPLSPPCADSATSEAAGQRPVHPASVPSVPSVQPSLLEDSPLVQALSGLHLSADRLEDSNKLKRSFSLDIKSVSYSASMAASLHGFSSSEDALEYYKPSTTLDGTNKLCQFSPVQELSEQTPETSPDKEEASIPKKLQTARPSDSQSKRLHSVRTSSSGTAQRSLLSPLLRSGSVEDNYHTSFLFGLSTSQQHLTKSAGLGLKGWHSDILAPQTSTPSLTSSWYFATESSHFYSASAIYGGSASYSAYSCSQLPTCGDQVYSVRRRQKPSDRADSRRSWHEESPFEKQFKRRSCQMEFGESIMSENRSREELGKVGSQSSFSGSMEIIEVS”, for which the “soluble on expression in E. coli” value was “not soluble”.
In the case of “MSLNKPLADRMRPIKLEDVVGQEHILSKNQILNKTLQAGHITNMIFYGPPGVGKTTVANIISNMTNKKLYKLNATNASIKDIQRIVAELDSFMTMNGVLLYLDEIQNFNKKQQQSLLEYIENGKITLIASTTENPYHYIYNAILSRSTVFEFKLLTKSNVIEGLKQVIKRINDEGKTLVEYEEEALDYIATASNGDLRRAMNALELAMYAAESENKEQVFLTIHIAQESTQKKVISYDKFGDQHYDILSAFQKSIRGTDPDAAIHYLARLVKAGDLNSICRRLLVIASEDIGLAYPTAITIVKSCVDAAMQVGFPEARINLAQATLVLATAPKSNSVIEAMDRALADLDQKDIGEIPTSLKDAHYKGASDLGRGVTYKYPHHYENNYIQQQYLPENIKNEKYYGSQNNKMEQRIFSYLEQLKKEGHHHHHH”, the “soluble on expression in E. coli” value was “not soluble”.
As for “MRKEDKGTVIRQLAKYIGQYPHFYLTDIEALNAEKTSELRRNCNKNGVKLVMVKNTLLRAALAASDVDFSSLYSCLKGNTAVMFCEVANSPAKVIKQFTKDTKGEGKPWLKAAYVQESFYIGRENLDALVSIKSKNELIADVVALLQSPAKNVIASLQSAGQTIHGVLKTLEEK”, the “soluble on expression in E. coli” value is reported as “not soluble”.
For the sequence “MSRLVIPSHSPNEEGNVVRVTPESAGWEYVGFEVYVLAKGQTLRKETKDQEACLVLLKGKANISTKLERWEQIGLRMDVSEKVPPYSVYIPSNDFYEVQAVTDLELAVCLAPGKGTYPARLIPPSEVGVEIRGAGNIERRVHNILPESQPADSLLVVEVFTPEGNWSSYPPHKHDQDNLPHESYLEETYYHKINPDHGFMVQRVYTDDRSIDETMVVKNGDVVLVPKGYHPVSAPPGYEGYYLNVMAGPVRTWKFHNDPDHEWVMESKLAAKQK”, the “soluble on expression in E. coli” value is recorded as “not soluble”.
The same measure for “MLRLQMTDGHISCTAVEFSYMSKISLNTPPGTKVKLSGIVDIKNGFLLLNDSNTTVLGGEVEHLIEKWELQRSLSKHNRSNIGTEGGPPPFVPFGQCVSRVQVDSRELDRRKTLQVTMPVKPTNDNDEFEKQRTAAIAEVAKSKETKTFGGGGGGARSNLNMNAAGNRNREVLQKEKSTKSEGKHEGVYRELVDEKALKHITEMGFSKEASRQALMDNGNNLEAALNVLLTSNKQKPVMGPPLRGRGKGRGRIRSEDEEDLGNARPSAPSTLFDFLESKMGTLNVEEPKSQPQQLHQGQYRSSNTEQNGVKDNNHLRHPPRNDTRQPRNEKPPRFQRDSQNSKSVLEGSGLPRNRGSERPSTSSVSEVWAEDRIKCDRPYSRYDRTKDTSYPLGSQHSDGAFKKRDNSMQSRSGKGPSFAEAKENPLPQGSVDYNNQKRGKRESQTSIPDYFYDRKSQTINNEAFSGIKIEKHFNVNTDYQNPVRSNSFIGVPNGEVEMPLKGRRIGHIKPAGPVTAVPCDDKIFYNSGPKRRSGPIKPEKILESSIPMEYAKMWKPGDECFALYWEDNKFYRAEVEALHSSGMTAVVKFIDYGNYEEVLLSNIKPIQTEAWEEEGTYDQTLEFRRGGDGQPRRSTRPTQQFYQPPRARN”: “not soluble”; for “MANVLCNRARLVSYLPGFCSLVKRVVNPKAFSTAGSSGSDESHVAAAPPDICSRTVWPDETMGPFGPQDQRFQLPGNIGFDCHLNGTASQKKSLVHKTLPDVLAEPLSSERHEFVMAQYVNEFQGNDAPVEQEINSAETYFESARVECAIQTCPELLRKDFESLFPEVANGQTNDSDWLEHHHHHH”: “soluble”.
